# Like-named read-outs stand apart in the source and are kept apart here.
# Assays:
# Details in all cases: remark: other sources report otherwise
# [1] = biological target: trimeric prefusion S protein of SARS-CoV-2 (SARS-CoV-2), P0DTC2
# [2] = biological target: T1, sCoV2-RBD (Fc-tagged RBD of SARS-CoV-2 S protein) (SARS-CoV-2; human), P0DTC2
# [3] = biological target: T1, sCoV2-RBD (Fc-tagged RBD of SARS-CoV-2 …); remark: listed apart in the source
# [4] = biological target: T1, sCoV2-RBD (Fc-tagged RBD of SARS-CoV-2 …); test: ELISA titration on coated sCoV2-RBD
# [5] = biological target: T1, sCoV2-RBD (Fc-tagged RBD of SARS-CoV-2 …); test: BLI (Octet) blocking of ACE2 binding to captured sCoV2-RBD
binder,measurement,setting,value
"CoV2-14 (antibody, V domains shown) VH: EVQLQQSGPGLVKPSQTLSLTCAISGDSVSSNSAAWNWIRQSPSRGLEWLGRTYYRSKWYNDYAVSVKSRITINPDTSKNQFSLQLNSVTPEDTAVYYCAREEQQLVHDYYYYGMDVWGQGTMVTVSS VL: QAVVTQPASVSGSPGQSITISCTGTSSDIGAYNYISWYQQHPGKAPKLIIYEVSNRPSGISYRFSGSKSGNTASLTISGLQAEDEANYYCSSYAGSISFGGGTKVTVL",Kd,[1],0.22 nM
same,EC50 (read off the curve),[2],0.5 nM
same,EC50,[3],0.58 nM
same,EC50,[4],0.58 nM
same,IC50,[5],3.14 µg/mL

# — US20230399384A1
